Assay results reported in patent US20140072613A1, “Compositions and Methods for Treating Cutaneous Scarring” (priority 2012, published 2014).

Tests used:
Experiment in all cases: cell-based or functional assay
PAK5(h) (human) = PAK5(h) (human) (UniProt Q9P286)
PKCβI(h) (human) = PKCβI(h) (human) (UniProt P05771)
FAK(h) (human) = FAK(h) (human) (UniProt Q05397)
MRCKα(h) (human) = MRCKα(h) (human) (UniProt Q5VT25)
LIMK1(h) (human) = LIMK1(h) (human) (UniProt P53667)
Met(Y1248D)(h) (human) = Met(Y1248D)(h) (human) (UniProt P08581)
[1] = molecular target: CDK7/cyclinH/MAT1(h) (human) (UniProt P50613)
DDR2(h) (human) = molecular target: T1, DDR2(h) (human) (UniProt Q16832)
T1 sequence (looked up): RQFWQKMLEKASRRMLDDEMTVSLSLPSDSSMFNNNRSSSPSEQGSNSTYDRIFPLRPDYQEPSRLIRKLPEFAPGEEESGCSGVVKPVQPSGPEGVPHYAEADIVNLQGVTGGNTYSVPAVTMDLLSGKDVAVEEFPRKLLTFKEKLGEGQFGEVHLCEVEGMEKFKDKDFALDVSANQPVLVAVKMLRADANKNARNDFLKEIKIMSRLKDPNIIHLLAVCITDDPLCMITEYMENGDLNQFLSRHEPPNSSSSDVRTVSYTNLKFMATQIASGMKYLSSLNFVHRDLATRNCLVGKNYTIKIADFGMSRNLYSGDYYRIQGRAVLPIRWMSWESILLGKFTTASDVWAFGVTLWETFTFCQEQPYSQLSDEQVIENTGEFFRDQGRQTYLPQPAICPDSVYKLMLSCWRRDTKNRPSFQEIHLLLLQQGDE

EphA5(h) (human) = molecular target: T2, EphA5(h) (human) (UniProt P54756)
T2 sequence (looked up): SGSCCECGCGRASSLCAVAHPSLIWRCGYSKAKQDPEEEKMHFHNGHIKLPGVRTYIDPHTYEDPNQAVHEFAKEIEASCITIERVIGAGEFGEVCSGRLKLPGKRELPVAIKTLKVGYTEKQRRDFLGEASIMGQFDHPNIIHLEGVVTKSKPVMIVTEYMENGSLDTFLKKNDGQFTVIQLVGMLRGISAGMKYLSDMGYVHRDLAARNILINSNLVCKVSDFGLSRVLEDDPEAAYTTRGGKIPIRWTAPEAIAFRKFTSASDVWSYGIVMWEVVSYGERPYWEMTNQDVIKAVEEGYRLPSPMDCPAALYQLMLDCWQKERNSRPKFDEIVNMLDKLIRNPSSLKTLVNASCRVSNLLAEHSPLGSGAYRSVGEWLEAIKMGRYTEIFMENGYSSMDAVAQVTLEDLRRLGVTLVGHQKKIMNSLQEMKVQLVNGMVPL

IKKβ(h) (human) = molecular target: T3, IKKβ(h) (human) (UniProt O14920)
T3 sequence (looked up): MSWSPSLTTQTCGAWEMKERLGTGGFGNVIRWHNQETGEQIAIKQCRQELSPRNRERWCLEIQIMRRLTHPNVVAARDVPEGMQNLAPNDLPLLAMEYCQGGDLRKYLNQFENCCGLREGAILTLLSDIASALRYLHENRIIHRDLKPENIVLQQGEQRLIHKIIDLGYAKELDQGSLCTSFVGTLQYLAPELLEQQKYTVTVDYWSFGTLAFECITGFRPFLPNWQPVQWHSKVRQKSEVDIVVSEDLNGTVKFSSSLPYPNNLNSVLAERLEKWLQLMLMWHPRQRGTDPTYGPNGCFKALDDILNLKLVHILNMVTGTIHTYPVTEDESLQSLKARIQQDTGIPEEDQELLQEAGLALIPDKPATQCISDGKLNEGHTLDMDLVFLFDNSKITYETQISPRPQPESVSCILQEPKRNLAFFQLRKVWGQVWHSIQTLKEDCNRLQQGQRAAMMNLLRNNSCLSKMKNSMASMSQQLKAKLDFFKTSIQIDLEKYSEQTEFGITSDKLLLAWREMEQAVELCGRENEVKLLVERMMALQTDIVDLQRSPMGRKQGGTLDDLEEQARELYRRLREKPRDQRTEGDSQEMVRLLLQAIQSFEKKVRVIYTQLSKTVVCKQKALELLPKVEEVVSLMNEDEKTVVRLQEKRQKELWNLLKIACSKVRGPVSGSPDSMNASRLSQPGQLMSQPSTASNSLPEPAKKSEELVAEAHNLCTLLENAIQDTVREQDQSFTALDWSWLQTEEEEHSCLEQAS

cKit(V654A)(h) (human) = cKit(V654A)(h) (human) (UniProt P10721)
PrKX(h) (human) = molecular target: T4, PrKX(h) (human) (UniProt P51817)
T4 sequence (looked up): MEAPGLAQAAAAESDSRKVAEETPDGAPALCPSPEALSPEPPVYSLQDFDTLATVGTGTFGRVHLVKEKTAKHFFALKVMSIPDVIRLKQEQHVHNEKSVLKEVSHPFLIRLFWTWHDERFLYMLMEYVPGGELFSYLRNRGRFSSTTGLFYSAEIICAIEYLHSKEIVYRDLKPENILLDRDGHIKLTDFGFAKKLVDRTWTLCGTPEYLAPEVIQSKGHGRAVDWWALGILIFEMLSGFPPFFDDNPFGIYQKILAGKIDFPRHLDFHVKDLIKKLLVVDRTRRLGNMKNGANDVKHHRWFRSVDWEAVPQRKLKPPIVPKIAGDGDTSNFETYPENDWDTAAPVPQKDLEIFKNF

CaMKIδ(h) (human) = CaMKIδ(h) (human) (UniProt Q8IU85)
CDK3/cyclinE(h) (human) = CDK3/cyclinE(h) (human) (UniProt Q00526)
EphB2(h) (human) = EphB2(h) (human) (UniProt P29323)
CDK6/cyclinD3(h) (human) = CDK6/cyclinD3(h) (human) (UniProt Q00534)
CaMKIIβ(h) (human) = CaMKIIβ(h) (human) (UniProt Q13554)
JNK3(h) (human) = JNK3(h) (human) (UniProt P53779)
CK2(h) (human) = molecular target: CK2(h) (human)
Arg(h) (human) = Arg(h) (human) (UniProt P42684)
Chain of Arg(h) (human) (P42684 38-1182 limits assumed): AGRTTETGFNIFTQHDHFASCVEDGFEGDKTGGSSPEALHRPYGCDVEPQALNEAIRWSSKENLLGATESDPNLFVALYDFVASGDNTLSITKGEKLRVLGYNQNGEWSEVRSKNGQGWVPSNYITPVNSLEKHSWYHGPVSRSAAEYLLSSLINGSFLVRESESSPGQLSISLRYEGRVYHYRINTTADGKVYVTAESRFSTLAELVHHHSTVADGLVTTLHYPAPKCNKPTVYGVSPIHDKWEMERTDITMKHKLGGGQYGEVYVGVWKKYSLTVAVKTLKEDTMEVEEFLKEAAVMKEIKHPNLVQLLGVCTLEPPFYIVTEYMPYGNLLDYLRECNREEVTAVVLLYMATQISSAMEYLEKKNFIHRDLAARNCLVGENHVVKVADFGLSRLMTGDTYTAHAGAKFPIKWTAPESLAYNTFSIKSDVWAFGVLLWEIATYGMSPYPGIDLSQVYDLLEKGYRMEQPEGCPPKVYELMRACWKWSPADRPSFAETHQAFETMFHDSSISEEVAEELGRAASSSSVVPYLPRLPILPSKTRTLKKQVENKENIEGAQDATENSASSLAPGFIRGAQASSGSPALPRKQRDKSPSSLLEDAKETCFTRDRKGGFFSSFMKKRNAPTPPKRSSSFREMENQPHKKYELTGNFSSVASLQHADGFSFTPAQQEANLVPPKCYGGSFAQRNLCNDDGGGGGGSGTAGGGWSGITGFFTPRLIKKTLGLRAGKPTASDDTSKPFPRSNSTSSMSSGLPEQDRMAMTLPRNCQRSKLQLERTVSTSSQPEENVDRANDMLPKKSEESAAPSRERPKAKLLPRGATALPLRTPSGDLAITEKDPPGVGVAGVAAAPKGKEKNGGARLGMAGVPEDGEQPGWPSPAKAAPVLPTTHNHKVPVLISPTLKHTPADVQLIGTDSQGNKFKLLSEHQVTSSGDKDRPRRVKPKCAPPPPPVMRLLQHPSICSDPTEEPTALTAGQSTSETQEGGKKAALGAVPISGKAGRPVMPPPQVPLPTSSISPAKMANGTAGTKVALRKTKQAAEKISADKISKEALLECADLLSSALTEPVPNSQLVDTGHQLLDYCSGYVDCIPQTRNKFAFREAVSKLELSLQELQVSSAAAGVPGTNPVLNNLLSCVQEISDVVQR

Chain of CDK6/cyclinD3(h) (human) (Q00534 whole entry, chain 1 of 2): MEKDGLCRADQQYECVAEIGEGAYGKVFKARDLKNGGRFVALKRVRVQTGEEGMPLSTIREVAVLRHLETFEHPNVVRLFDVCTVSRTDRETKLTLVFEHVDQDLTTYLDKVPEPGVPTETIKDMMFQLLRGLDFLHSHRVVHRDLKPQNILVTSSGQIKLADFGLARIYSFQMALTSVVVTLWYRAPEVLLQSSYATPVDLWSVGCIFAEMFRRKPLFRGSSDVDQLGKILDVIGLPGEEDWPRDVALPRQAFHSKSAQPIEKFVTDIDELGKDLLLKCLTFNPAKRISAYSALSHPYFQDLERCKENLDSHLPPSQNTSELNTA
Chain of CDK6/cyclinD3(h) (human) (P30281 whole entry, chain 2 of 2, further chain): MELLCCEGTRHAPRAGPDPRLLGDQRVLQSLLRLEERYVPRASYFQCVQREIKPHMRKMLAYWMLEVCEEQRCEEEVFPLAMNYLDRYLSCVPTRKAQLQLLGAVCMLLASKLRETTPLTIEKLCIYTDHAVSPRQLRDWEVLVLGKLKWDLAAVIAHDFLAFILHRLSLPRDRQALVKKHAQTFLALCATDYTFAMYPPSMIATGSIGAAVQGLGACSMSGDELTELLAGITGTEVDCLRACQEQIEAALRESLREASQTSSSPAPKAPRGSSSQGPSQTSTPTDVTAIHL
Chain of CaMKIIβ(h) (human) (Q13554 whole entry): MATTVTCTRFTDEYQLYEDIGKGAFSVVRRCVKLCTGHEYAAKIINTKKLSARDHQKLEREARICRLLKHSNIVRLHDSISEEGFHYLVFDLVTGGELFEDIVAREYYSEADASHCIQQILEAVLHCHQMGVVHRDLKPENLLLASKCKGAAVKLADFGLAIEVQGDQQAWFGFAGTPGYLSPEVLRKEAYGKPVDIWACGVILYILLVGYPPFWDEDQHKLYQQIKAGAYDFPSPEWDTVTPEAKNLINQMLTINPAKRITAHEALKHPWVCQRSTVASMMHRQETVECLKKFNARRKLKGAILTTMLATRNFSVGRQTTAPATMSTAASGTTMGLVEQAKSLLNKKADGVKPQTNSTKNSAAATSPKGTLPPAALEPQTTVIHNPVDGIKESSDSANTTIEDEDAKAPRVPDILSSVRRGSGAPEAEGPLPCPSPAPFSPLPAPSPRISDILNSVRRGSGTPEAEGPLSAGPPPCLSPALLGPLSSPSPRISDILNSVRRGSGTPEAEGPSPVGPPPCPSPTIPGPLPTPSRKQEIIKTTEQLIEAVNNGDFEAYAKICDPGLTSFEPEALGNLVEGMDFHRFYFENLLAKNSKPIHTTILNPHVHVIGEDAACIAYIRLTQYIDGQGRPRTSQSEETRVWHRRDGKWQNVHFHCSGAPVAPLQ
Chain of cKit(V654A)(h) (human) (P10721 544-976 V654A): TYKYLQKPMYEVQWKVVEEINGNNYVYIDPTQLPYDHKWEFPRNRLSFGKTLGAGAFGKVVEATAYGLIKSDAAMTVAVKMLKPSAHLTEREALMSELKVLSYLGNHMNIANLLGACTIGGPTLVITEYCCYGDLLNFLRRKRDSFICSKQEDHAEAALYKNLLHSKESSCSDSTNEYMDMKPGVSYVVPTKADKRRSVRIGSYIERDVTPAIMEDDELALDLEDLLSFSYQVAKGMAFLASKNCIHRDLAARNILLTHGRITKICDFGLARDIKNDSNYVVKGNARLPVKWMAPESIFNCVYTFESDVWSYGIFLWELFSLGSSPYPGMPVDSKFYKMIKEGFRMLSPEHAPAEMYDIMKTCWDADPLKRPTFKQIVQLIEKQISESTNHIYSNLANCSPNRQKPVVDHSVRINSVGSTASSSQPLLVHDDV
Chain of MRCKα(h) (human) (Q5VT25 1-473 limits assumed): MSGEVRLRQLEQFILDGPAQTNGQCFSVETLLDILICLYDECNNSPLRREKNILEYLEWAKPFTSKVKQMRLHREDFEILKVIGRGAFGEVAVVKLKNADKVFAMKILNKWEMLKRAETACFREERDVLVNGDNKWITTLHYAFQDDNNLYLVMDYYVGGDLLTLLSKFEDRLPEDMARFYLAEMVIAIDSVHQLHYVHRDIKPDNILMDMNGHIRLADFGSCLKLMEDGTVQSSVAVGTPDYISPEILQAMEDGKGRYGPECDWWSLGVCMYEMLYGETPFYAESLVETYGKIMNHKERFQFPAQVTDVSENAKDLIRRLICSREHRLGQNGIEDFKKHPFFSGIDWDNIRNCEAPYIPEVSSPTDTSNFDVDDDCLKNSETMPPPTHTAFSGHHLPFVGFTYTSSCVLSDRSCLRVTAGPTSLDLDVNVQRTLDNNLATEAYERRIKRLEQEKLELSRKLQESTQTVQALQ
Chain of CaMKIδ(h) (human) (Q8IU85 whole entry, stated change not applied): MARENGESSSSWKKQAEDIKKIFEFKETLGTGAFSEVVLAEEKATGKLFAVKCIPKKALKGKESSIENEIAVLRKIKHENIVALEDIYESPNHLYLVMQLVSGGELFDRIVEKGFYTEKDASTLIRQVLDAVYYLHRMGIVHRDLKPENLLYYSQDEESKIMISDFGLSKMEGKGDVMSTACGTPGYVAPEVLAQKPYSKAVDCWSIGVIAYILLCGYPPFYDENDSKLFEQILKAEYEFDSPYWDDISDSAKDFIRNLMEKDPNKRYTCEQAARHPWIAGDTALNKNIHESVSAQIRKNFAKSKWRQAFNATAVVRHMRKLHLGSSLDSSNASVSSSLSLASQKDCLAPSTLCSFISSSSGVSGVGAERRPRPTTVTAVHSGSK
Chain of CDK7/cyclinH/MAT1(h) (human) (P50613 whole entry, chain 1 of 3): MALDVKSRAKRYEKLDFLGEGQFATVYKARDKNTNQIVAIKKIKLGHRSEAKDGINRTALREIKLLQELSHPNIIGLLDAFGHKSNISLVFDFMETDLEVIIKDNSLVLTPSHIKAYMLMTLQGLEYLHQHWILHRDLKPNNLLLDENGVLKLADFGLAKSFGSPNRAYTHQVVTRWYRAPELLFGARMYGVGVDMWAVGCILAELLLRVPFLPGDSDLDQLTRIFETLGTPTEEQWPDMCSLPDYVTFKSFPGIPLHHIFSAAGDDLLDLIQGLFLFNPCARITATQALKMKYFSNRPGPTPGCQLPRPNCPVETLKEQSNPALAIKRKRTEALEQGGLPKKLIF
Chain of CDK7/cyclinH/MAT1(h) (human) (P51946 whole entry, chain 2 of 3, further chain): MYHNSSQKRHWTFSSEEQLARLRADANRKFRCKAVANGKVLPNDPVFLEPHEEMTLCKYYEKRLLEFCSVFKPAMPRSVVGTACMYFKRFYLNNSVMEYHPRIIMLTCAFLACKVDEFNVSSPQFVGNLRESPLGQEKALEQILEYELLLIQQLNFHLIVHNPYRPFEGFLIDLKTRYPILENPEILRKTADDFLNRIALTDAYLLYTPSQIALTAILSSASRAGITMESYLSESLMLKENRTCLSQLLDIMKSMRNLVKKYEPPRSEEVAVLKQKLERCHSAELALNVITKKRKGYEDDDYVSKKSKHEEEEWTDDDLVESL
Chain of CDK7/cyclinH/MAT1(h) (human) (P51948 whole entry, chain 3 of 3, further chain): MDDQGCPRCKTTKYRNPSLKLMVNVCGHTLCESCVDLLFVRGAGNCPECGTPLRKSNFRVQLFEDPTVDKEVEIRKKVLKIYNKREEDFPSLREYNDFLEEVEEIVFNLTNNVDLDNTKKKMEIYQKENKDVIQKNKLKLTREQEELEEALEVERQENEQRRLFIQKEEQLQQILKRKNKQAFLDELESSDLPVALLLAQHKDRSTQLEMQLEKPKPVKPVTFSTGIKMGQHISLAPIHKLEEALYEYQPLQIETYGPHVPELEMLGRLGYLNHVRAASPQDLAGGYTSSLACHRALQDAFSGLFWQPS

MMI-0500 (peptide)
% activity, 100 µM (PAK5(h) (human)): 125% | % activity, 100 µM (PKCβI(h) (human)): 1% | % activity, 100 µM (FAK(h) (human)): 94% | % activity, 100 µM (MRCKα(h) (human)): 5% | % activity, 100 µM (LIMK1(h) (human)): 87% | % activity, 100 µM (Met(Y1248D)(h) (human)): 218% | % activity, 100 µM [1]: 15% | % activity, 100 µM (DDR2(h) (human)): 79% | % activity, 100 µM (EphA5(h) (human)): 42% | % activity, 100 µM (IKKβ(h) (human)): 71% | % activity, 100 µM (cKit(V654A)(h) (human)): 223% | % activity, 100 µM (PrKX(h) (human)): 57% | % activity, 100 µM (CaMKIδ(h) (human)): 0% | % activity, 100 µM (CDK3/cyclinE(h) (human)): 8% | % activity, 100 µM (EphB2(h) (human)): 70% | % activity, 100 µM (CDK6/cyclinD3(h) (human)): 23% | % activity, 100 µM (CaMKIIβ(h) (human)): 3% | % activity, 100 µM (JNK3(h) (human)): 171% | % activity, 100 µM (CK2(h) (human)): 93% | % activity, 100 µM (Arg(h) (human)): 22%
